This experiment has as its target T1, human glycoprotein VI (GPVI), native, on human platelets (human, UniProt Q9HCN6 21-339).
T1 sequence (looked up): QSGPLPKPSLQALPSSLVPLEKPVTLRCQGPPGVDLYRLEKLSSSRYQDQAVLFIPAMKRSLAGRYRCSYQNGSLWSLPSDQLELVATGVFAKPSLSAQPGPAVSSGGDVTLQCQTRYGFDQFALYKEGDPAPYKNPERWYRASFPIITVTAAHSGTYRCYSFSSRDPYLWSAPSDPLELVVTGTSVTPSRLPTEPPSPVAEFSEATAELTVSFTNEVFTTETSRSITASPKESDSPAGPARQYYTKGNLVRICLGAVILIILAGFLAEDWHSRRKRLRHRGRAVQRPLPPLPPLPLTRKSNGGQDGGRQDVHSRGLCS
Put plainly: cell-based or functional assay.

B1: hGP 5C4 Fab (Fab, V domains shown)
VH: EVKLQESGGGLVQPGRSLKLSCTASGFTFSDYFMSWVRQAPTRGLEWVASISSGGASAYWRDSVKGRFTISRDNAKSALYLQMDSLRSEDTATYFCARGELDFDYWGQGVMVAVSS
VL: ADPNSTLLSASVGDRVTLNCTASQNVYKNLAWYQQKLGEAPRLLLYSANSQTGIPSRFSGSGSGPDFTLTISSLQPEDVASYFCQQYYSGNTFGAGTKLELKR
In the case of B1, the “IC50 of inhibition of collagen-induced (3 µg/ml) human platelet aggregation ex vivo” value was 0.12 µg/mL.

These data come from US20070071744A1 (published 2007).
